Data on six molecules can be found in patent publication US20250134988A1 (WISTAR INSTITUTE OF ANATOMY AND BIOLOGY, published 2025).

Numbering of substitutions follows the chain as printed. Numbers in names are those of the source.

The target of one assay is T1, CoV2_5P_FPKO1 (SARS-CoV-2, UniProt P0DTC2 14-1208).
T1 construct: also called 5P KO1
Briefly: ELISA.

Another assay addresses T2, CoV2_5P_NonSFP (SARS-CoV-2, UniProt P0DTC2 14-1208).
T2 construct: also called scrambled fusion peptide spike
The assay is described as follows: ELISA, AUC, on 5P spikes with swapped fusion peptides. In general terms: An ELISA detects its analyte on a solid surface through an enzyme-linked reagent.

The target in assay [1] is T3, CoV2_5P prefusion-stabilized spike protein (SARS-CoV-2, UniProt P0DTC2 14-1208).
T3 construct: also called 5P trimer; wildtype 5P
The assay is described as follows: ELISA, AUC ratio to wildtype C2691.

B1: C2691 (antibody, V domains shown)
VH: QVQLQQSGPELVRPGESVKISCKGSGYTFTDYAMHWVKQSHAKSLEWIGIISFYYDNTKYNQNFKGKATMTVDKSSSTAYMELARLTSEDSAIYFCASQGIHYYGSFAYWGQGTLVTVSA
VL: DIVMTQSQKFMSTSVGDRVSVSCKASQNVGTNLGWYQQKPGQSPKALIYSASYRYSGVPDRFTGSGSGTDFTLTISNVQSEDLAEYFCQQYNSSPLTFGAGTKLELK
notes: also called lineage HV1-67/KV6-15 antibody C2691
For the molecule B1, the binding result in the assay with CoV2_5P_FPKO1 is “binds”.

B2: H110A (antibody, V domains shown)
VH: B1 VH with H102A
VL: B1 VL
notes: member of the group m29; also called C2691 H110A; C2691 CDR3 alanine scanning mutant
Consider B2, for which the figures for the binding result (with CoV2_5P_NonSFP; in assay [1]) were “no binding” and “binds”, respectively.

B3: Y111A (antibody, V domains shown)
VH: B1 VH with Y103A
VL: B1 VL
notes: member of the group m29; also called C2691 Y111A; C2691 CDR3 alanine scanning mutant
With B3, the binding result with CoV2_5P_NonSFP was “no binding”.

B4: Q107A (antibody, V domains shown)
VH: B1 VH with Q99A
VL: B1 VL
notes: member of the group m29; also called C2691 Q107A; C2691 CDR3 alanine scanning mutant
For the molecule B4, the binding result with CoV2_5P_NonSFP is on record as “no binding”.

B5: Y112A (antibody, V domains shown)
VH: B1 VH with Y104A
VL: B1 VL
notes: member of the group m29; also called C2691 Y112A; C2691 CDR3 alanine scanning mutant
On to B5, for which the binding result in the assay with CoV2_5P_NonSFP is “no binding”; in assay [1], “binds”.

B6: I109A (antibody, V domains shown)
VH: B1 VH with I101A
VL: B1 VL
notes: member of the group m29; also called C2691 I109A; C2691 CDR3 alanine scanning mutant
For the molecule B6, the binding result in the assay with CoV2_5P_NonSFP is listed as “no binding”; in assay [1], “binds”.
